Experimental data: patent publication US20150359847A1, “METHOD AND COMPOSITION FOR CONFERRING NEUROPROTECTION” (BLOOD SYSTEMS RESEARCH INSTITUTE, priority 2014, published 2015)

Experiments:
MMP-2 [1] = molecular target: MMP-2 (UniProt P08253); test: cell-based or functional assay
MMP-9 [2] = molecular target: T1, MMP-9 (Homo sapiens, UniProt P14780); test: cell-based or functional assay
Target sequence in this assay (P14780 107-707 limits assumed): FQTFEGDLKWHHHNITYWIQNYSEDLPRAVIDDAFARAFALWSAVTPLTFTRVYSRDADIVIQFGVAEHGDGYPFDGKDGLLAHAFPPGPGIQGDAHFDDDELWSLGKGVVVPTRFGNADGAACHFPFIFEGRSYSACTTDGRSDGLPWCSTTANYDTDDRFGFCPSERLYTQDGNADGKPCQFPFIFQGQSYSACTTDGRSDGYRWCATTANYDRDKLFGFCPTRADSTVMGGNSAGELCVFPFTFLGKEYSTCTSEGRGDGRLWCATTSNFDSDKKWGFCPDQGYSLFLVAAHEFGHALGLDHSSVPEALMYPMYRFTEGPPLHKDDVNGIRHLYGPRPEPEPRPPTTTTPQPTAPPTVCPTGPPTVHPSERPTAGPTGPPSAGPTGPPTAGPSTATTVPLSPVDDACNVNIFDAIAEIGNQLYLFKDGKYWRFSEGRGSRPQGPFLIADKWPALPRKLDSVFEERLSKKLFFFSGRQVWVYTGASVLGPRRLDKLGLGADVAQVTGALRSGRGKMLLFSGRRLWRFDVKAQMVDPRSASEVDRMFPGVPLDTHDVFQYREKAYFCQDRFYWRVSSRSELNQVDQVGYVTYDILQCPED

[3] = system: phospho-AKT(Ser473) in SH-SY5Y cells; test: Akt (Ser473) phosphorylation in differentiated SH-SY5Y cells (antibody array, western blot, Phosflow); type: cell-based, human
Experimental: SH-SY5Y cells were obtained from ATCC (Cat# CRL-2266, Manassas, Va.) and were cultured in DMEM and 10% FBS up to passage 10. For differentiation of SH-SY5Y cells into a neuronal phenotype, cells were first plated in DMEEM+10% FBS for 24 hrs before exchanging media in DMEM+1% FBS 10 μM retinoic acid. Differentiation was performed for 3 days before experimentation. Hippocampal neurons were prepared according to the protocol by Beaudoin et al. (Nature Protocols 2012; 7(9):1741-1754) with minor modifications. In brief, after trypsin digestion of hippocampi isolated from P1 mouse pups single cell suspensions was created by trituration and plated onto Biocoat™ poly-D-lysine coated 12-well plates (Cat#354470, BD Biosciences, San Jose, Calif.). 2 pups were used per well and cell suspensions were incubated for 10 minutes per well for a total of 6 wells. The serial incubation allowed for variation in cell densities applicable to different experiments but also contributed to the reduction in non-neuronal cells. Typically wells 1-2 were pooled for western blotting and wells 4-5 were used for imaging following treatments. After the initial plating cells were incubated for 2 hrs before media was completely exchanged for maintenance media that was supplemented with 1 μM of the anti-mitotic cytosine arabinoside in order to further reduce non-neuronal cells. For western blot, cells were cultured for 7 days before experimentation. Half of maintenance media was exchanged on day 2 and day 5. For morphology experiments, treatments were initiated upon the introduction of maintenance media and was renewed 48 hrs later for a further 24 hrs of treatment. Experiments were terminated by fixation for 20 minutes with 4% paraformaldehyde after which cells were stored at 4° C. in PBS prior to staining protocols.
(§1) Pathscan Antibody™ array kits were purchased from Cell Signaling Technologies (Danvers, Mass.). PathScan® RTK signaling antibody array kit (Fluorescent Readout, Cat#7949) and PathScan™ Akt signaling antibody array kit (Fluorescent Readout, Cat#9700) were performed as per manufacturer's instructions. Imaging was performed on a LI-COR Odyssey™ infrared scanner and pixel densities measured by in house LI-COR Image™ suite software.
After experimentation, SH-SY5Y cells were detached from culture ware via trypsin digestion and rapidly mixed with an equal volume of BD cytofix fixation buffer (Cat#554655. BD Biosciences, San Jose, Calif.). After wash steps with PBS cells were permeabilized with BD phosflow Perm Buffer III (Cat#558050. BD Biosciences, San Jose, Calif.) and incubated on ice for 30 mins. After washing in BD stain buffer (Cat#554657. BD Biosciences, San Jose, Calif.) cells were counted and 1×10^6 cells were used antibody incubation. Negative IgG compensation control was obtained using ABC control beads (Cat# A10344. Life Technologies, Grand Island, N.Y.). Antibody incubations were conducted for 30 mins at RT in the dark. Following wash steps the volume was adjusted to 500 μl and results obtained using and LSR II flow cytometer and analyzed using Flowjo™ cytometric analytical software version 8.8.7.
(§2) Cell lysates for western blotting were prepared with RIPA buffer (Cat#89900. Thermofisher Scientific, Rockford, Ill.) supplemented with phosphatase inhibitor cocktail 2 (Cat# P5726. Sigma, St Louis, Mo.), phosphatase inhibitor cocktail 3 (Cat# P0044. Sigma, St Louis, Mo.) and complete protease inhibitor (Cat#1862209. Thermofisher Scientific, Rockford, Ill.). Complete homogenization was ensured by brief sonication using a Branson Sonifier 150, (Branson Ultrasonics Corporation, Danbury, Conn.). Protein content was quantified with a Pierce BCA protein assay kit per manufacturer's instructions (Cat#23225. Thermofisher Scientific, Rockford, Ill.).
(§3) Lysates was analyzed in conjuncture with the LI-COR Odyssey™ infra-red imaging system. […]

[4] = system: S6 Ribosomal Protein (S235/236) in SH-SY5Y cells; test: S6 Ribosomal Protein (S235/236) phosphorylation in SH-SY5Y cells; type: cell-based, human; details: 10 μM GM6001, 15 minutes
Experimental: (§4) SH-SY5Y cells were obtained from ATCC (Cat# CRL-2266, Manassas, Va.) and were cultured in DMEM and 10% FBS up to passage 10. For differentiation of SH-SY5Y cells into a neuronal phenotype, cells were first plated in DMEEM+10% FBS for 24 hrs before exchanging media in DMEM+1% FBS 10 μM retinoic acid. Differentiation was performed for 3 days before experimentation. Hippocampal neurons were prepared according to the protocol by Beaudoin et al. (Nature Protocols 2012; 7(9):1741-1754) with minor modifications. In brief, after trypsin digestion of hippocampi isolated from P1 mouse pups single cell suspensions was created by trituration and plated onto Biocoat™ poly-D-lysine coated 12-well plates (Cat#354470, BD Biosciences, San Jose, Calif.). 2 pups were used per well and cell suspensions were incubated for 10 minutes per well for a total of 6 wells. The serial incubation allowed for variation in cell densities applicable to different experiments but also contributed to the reduction in non-neuronal cells. […]
as §1
as §2, with “Complete homogenization was ensured by brief sonication using a Branson Sonifier 150, (Branson Ultrasonics Corporation, Danbury, Conn.).” left out
as §3

MMP-2 [5] = molecular target: T2, MMP-2 (Homo sapiens, UniProt P08253); test: SensoLyte Fluorimetric MMP-2 Activity Assay; type: biochemical; details: GM6001
T2 sequence (P08253 110-660): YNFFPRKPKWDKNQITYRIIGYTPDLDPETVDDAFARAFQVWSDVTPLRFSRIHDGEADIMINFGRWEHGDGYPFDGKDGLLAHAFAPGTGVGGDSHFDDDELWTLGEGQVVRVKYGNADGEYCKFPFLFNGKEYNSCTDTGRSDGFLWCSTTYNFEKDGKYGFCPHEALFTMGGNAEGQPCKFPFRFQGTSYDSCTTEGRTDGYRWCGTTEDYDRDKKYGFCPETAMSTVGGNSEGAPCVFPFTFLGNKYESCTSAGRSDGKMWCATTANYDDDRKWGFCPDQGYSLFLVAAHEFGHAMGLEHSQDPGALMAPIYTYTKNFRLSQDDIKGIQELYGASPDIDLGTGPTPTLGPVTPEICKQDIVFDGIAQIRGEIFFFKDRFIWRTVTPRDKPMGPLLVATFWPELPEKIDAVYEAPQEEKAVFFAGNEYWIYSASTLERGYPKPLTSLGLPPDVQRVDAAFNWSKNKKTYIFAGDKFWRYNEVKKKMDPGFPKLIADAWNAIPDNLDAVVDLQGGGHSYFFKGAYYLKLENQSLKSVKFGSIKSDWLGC
From the text: (§5) SensoLyte Fluorimetric MMP-2 Activity Assay Kit™ (Cat#71151) and SensoLyte Fluorimetric MMP-9 Activity Assay Kit™ (Cat#71155) were purchased from AnaSpec (Fremont, Calif.) and performed per manufacturer's instructions.

MMP-9 [6] = molecular target: T1, MMP-9; test: SensoLyte Fluorimetric MMP-9 Activity Assay; type: biochemical; details: GM6001
From the text: as §5
Target sequence in this assay (P14780 94-707, species assumed): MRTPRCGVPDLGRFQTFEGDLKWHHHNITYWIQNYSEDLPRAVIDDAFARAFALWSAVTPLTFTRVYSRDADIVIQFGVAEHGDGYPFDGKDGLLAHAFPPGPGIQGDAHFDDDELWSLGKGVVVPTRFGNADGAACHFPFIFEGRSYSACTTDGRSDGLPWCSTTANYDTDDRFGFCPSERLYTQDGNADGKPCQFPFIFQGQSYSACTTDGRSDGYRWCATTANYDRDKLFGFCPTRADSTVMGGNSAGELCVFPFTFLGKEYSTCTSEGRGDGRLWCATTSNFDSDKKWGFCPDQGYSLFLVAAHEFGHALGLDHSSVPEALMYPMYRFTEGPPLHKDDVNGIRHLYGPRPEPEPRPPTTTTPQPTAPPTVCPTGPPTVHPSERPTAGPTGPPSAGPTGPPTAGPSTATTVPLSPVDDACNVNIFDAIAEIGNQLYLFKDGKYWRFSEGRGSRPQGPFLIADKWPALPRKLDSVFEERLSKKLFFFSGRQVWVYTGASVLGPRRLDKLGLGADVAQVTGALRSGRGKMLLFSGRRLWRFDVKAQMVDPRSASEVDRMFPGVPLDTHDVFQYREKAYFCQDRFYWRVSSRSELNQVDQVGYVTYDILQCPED

[7] = Brain distribution of IV infra-red tagged TIMP3 post-TBI; type: in vivo, mouse; details: coronal section through impact site, n=2
From the text: FIGS. 2A-2B are graphical representations depicting various data relating to intravenous TIMP3 which preserves vulnerable neuronal populations in the hippocampus. (A) Coronal section through the impact site showing target coverage following IV administration of an infra-red tagged TIMP3. Spectrum bar indicates the intensity of the distribution. […] (B) NeuN staining of post-mitotic mature neurons 7 days post-TBI. Representative photomi-crographs of ipsilateral hippocampi from the 3 groups show NeuN staining in the granule cell layer (GCL) and Hilus (HL) of the dentate gyrus. Highlighted area panels show enhanced view of NeuN+ve hilar interneurons. Scale bar=100 μm. Lower panel, quantification of NeuN+ve neurons in the HL. n=4, 4 section per animal, mean±s.e.m. […] (C) DCX staining of neural progenitors/immature neurons 7 days post-TBI. Representative photomi-crographs of ipsilateral hippocampi from the 3 groups showing DCX staining in the subgranule zone (SGZ) of the dentate gyrus. Highlighted area panels show enhanced view of DCX positive immature neurons. […] Lower panel, quantification of DCX+ve neurons, n=4, 4 sections per animal, mean±s.e.m.
Subsequently, the inventors sought to determine the effects IV TIMP3 post-TBI on hippocampal neuronal populations. […] To further examine the effects of TIMP3 on neuronal cells the presence of neural progenitors was quantified by DCX staining. […]

hippocampal neurons = test: Sholl analysis of isolated hippocampal neurons; type: cell-based, mouse; details: shRNA vs scrambled sequence (SCR); 7 days post-transfection
Experimental: as §4
Sholl analysis on processed images of isolated hippocampal neurons was conducted using the Fiji derivation of Image J. (Hypertext Transfer Protocol://Fiji.sc.Fiji). […] After neurites had been traced the images were rendered as an analyzed skeleton and Sholl analysis was run on the image from the Analyze menu option.

mTOR = test: Real-time PCR of mTOR message in transfected hippocampal neurons; type: cell-based, mouse; details: 7 days post-transfection; during TIMP3 treatment; relative to actin
Experimental: Primary hippocampal neuron suspensions were transfected post-trituration and prior to plating. Neurons were ‘Nucleofected’ using a 4D-Nucleofector™ System (Lonza, Walkersville, Md.) in conjunction with a P3 Primary Cell 4D-Nucleofector® X Kit. In brief, 5×10^5 cells were nucleofected with 1.5 μg DNA resuspended in 100 μl of P3 solution after which cells were plated and cultured per normal protocol.
Plasmid vector pENN.AAV.U6.ShRLuc.CMV.eGFP.SV40 was provided by the Penn vector core, University of Pennsylvania, (Philadelphia, Pa.). mTOR shRNA sequence was chosen based on the previous publication by Jaworrski et al (43). Sequence ‘mTOR3071’ was chosen based on complete sequence identity between rat and mouse genes. Scrambled sequence (SCR) was designed using the online scramble design tool by genscript on the World Wide Web at genscript.com/ssl-bin/app/scramble. […]
Cells were lysed using 0.7 mL of QIAzol™ reagent (Qiagen, Valencia Calif.), followed by 15 min centrifugation at 12,000 g at 4° C. […] Quantitative real-time PCR measuring mouse-specific mTOR and Beta-actin (ACTB) genes using Taqman™ real time PCR was performed using the ABI ViiA 7 Real-Time PCR System™. Raw cycle threshold (Ct) numbers of amplified mTOR gene products were normalized to the housekeeping gene ACTB to control for cDNA input amounts. mRNA relative copy number was determined using the comparative Ct method.

## Recombinant TIMP3 (tissue inhibitor of matrix metalloproteinase-3) (from UniProt P35625 24-211)
MMP-2 [1]
  Sensolyte FRET assay of MMP-2 enzyme activity; TIMP3 concentration that gives full inhibition: 1 µg/mL
MMP-9 [2]
  Sensolyte FRET assay of MMP-9 enzyme activity; TIMP3 concentration that gives full inhibition: 1 µg/mL

## CNC(=O)[C@H](Cc1c[nH]c2ccccc12)NC(=O)[C@@H](CC(=O)NO)CC(C)C [GM6001, reference compound]
[3]; 10 μM GM6001, 15 minutes
  phosphorylation of Akt (Ser473), western blot: did not result in increased phosphorylation
[4]
  phosphorylation of S6RP (S235/236), western blot: did not result in increased phosphorylation
MMP-2 [5]
  MMP-2 inhibition (Sensolyte FRET assay): complete MMP inhibition
MMP-9 [6]
  MMP-9 inhibition (Sensolyte FRET assay): complete MMP inhibition

## CO[C@H]1C[C@@H]2CC[C@@H](C)[C@@](O)(O2)C(=O)C(=O)N2CCCC[C@H]2C(=O)O[C@H]([C@H](C)C[C@@H]2CC[C@@H](O)[C@H](OC)C2)CC(=O)[C@H](C)/C=C(\C)[C@@H](O)[C@@H](OC)C(=O)[C@H](C)C[C@H](C)/C=C/C=C/C=C/1C [rapamycin, Rapamycin, reference compound]
[3]; rapamycin pre-treatment with TIMP3
  Akt (Ser473) phosphorylation with rapamycin, western blot: not inhibited

B1: infra-red tagged TIMP3: Infra-red tagged version of recombinant TIMP3, obtained from Amgen Inc. (protein, UniProt P35625 24-211, looked up)
Metalloproteinase inhibitor 3: CTCSPSHPQDAFCNSDIVIRAKVVGKKLVKEGPFGTLVYTIKQMKMYRGFTKMPHVQYIHTEASESLCGLKLEVNKYQYLLTGRVYDGKMYTGLCNFVERWDQLTLSQRKGLNYRYHLGCNCKIKSCYYLPCFVTSKNECLWTDMLSNFGYPGYQSKHYACIRQKGGYCSWYRGWAPPDKSIINATDP
modifications: infra-red dye label
[7]
  penetrance into the ipsilateral hippocampus after IV administration: penentrance of TIMP3 into the ipsilateral hippocampus

B2: shRNA against mTOR: shRNA sequence mTOR3071 (SEQ ID NO: 1) cloned into plasmid pENN.AAV.U6.ShRLuc.CMV.eGFP.SV40 (nucleic acid)
guide: GGAUCCGAGCCACATCCGTCCCTACTTCAAGAGAGTAGGGACGGATGTGGCTCTTTTTGAAUCC
Hippocampal neurons
  effect on TIMP3-promoted neurite outgrowth (Sholl analysis): significantly inhibited the effects of TIMP3 on neurite outgrowth
mTOR
  reduction of mTOR message levels compared to SCR: approximately 50%
